Data taken from article PMC3227653 (2011).

Molecular target: Clostridium difficile toxin A (C. difficile, UniProt P16154 1-2710)
Test: SPR

Row | Binder | koff [s⁻¹]
1 | pepsin-treated A26.8m (VHH) VHH: QVKLEESGGGLVQAGGSLRLSCAASERTFSRYPVAWFRQAPGAEREFVCVISSTGTSTYYADSVKGRFTCSRDNAKVTVYLQMNNLKREDTAVYFCAVNSQRTRLQDPNEYDYWGQGTQVTVSS | 0.019
2 | pepsin-treated A4.2m (VHH) VHH: QVKLEESGGGLVQAGGSLRLSCAASGRTFNTLSMGWFRQAPGKEREFVCAVSRSGGSTYYADSVKGRFTCSRDNAKNTVYLQMNSLKPEDTAVYYCAAAATKSNTTAYRLSFDYWGQGTQVTVSS | 0.016
3 | pepsin-treated A5.1m (VHH) VHH: QVKLEESGGGLVQAGGSLRLSCAASGRTFSMYRMGWFRQAPGKEREFVCVITRNGSSTYYADSVKGRFTCSRDNAKNTVYLQMNSLKPEDTALYYCAATSGSSYLDAAHVYDYWGQGTQVTVSS | 0.013
